{"source": "paper PMC4560099", "target": "14-3-3ε (UniProt P62259)", "assay": "GST-14-3-3ε pull-down from neuronal lysate", "settings": "reference: wild-type CRTC1270"}
{"substance": "CRTC1 (CRTC1270 reporter) 1-270 (from UniProt Q68ED7) S245A", "values": [{"measurement": "binding against the reference", "setting": "sites S245", "value": "weaker"}]}
{"substance": "CRTC1 (CRTC1270 reporter) 1-270 (from UniProt Q68ED7) S151A", "values": [{"measurement": "binding against the reference", "setting": "sites S151", "value": "weaker"}]}
{"substance": "CRTC1 (CRTC1270 reporter) 1-270 (from UniProt Q68ED7) S64A/S151A/S245A", "values": [{"measurement": "binding against the reference", "setting": "sites S64,S151,S245", "value": "lost"}]}
{"substance": "CRTC1 (CRTC1270 reporter) 1-270 (from UniProt Q68ED7) S64A", "values": [{"measurement": "binding against the reference", "setting": "sites S64", "value": "weaker"}]}
